The source of these data is patent US20100150950A1, “HUMAN ANTIBODIES THAT BIND CD70 AND USES THEREOF” (Medarex, Inc., priority 2006, published 2010).

The test system of test [1] is monkey rhesus CD70+ B lymphoma cell line LCL8664. As to the kind of experiment: FACS cross-reactivity with rhesus B lymphoma cells. It counts as binding. As to conditions: antibody 1 μg/ml. As for the experimental part:
FACS analysis was also employed to access the ability of the anti-CD70 antibody 69A7 cross reacting with the monkey rhesus CD70+B lymphoma cell line, LCL8664 (ATCC#: CRL-1805). Binding of the HuMAb 69A7 anti-CD70 human monoclonal antibody was assessed by incubating 1×10^5 cells with 69A7 at a concentration of 1 μg/ml. The cells were washed and binding was detected with a FITC-labeled anti-human IgG Ab. An isotype control antibody was used as a negative control. Flow cytometric analyses were performed using a FACSCalibur flow cytometry (Becton Dickinson, San Jose, Calif.).

In test [2] the target is T1, CD70 expressed on the surface of Raji lymphoma cells (Homo sapiens, UniProt P32970).
T1 construct: endogenous in cells; host or cells: Daudi (ATCC CCL-213), HuT 78 (TIB-161), Raji (CCL-86), Granta 519 (DSMZ 342)
T1 sequence (P32970 1-193): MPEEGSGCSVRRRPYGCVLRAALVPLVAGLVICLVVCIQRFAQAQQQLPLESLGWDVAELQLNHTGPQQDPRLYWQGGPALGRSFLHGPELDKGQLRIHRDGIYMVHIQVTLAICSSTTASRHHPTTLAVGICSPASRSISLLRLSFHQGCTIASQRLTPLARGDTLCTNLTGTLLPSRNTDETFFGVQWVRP
As to the kind of experiment: Flow cytometry binding to Raji cells. The note with it: antibody 10 μg/ml. As for the experimental part: Anti-CD70 antibodies were tested for binding to lymphoma cells expressing CD70 on their cell surface by flow cytometry.
The lymphoma cell lines Daudi (ATCC Accession No. CCL-213), HuT 78 (ATCC Accession No. TIB-161) and Raji (ATCC Accession No. CCL-86) were each tested for antibody binding. Binding of the HuMAb 2H5 anti-CD70 human monoclonal antibody was assessed by incubating 1×10^5 cells with 2H5 at a concentration of 1 μg/ml. The cells were washed and binding was detected with a FITC-labeled anti-human IgG Ab. […] Flow cytometric analyses were performed using a FACSCalibur flow cytometry (Becton Dickinson, San Jose, Calif.). The anti-CD70 monoclonal antibody 2H5 bound to the lymphoma cell lines Daudi, HuT 78 and Raji, as measured by the mean fluorescent intensity (MFI) of staining.
The lymphoma cell lines Raji and Granta 519 (DSMZ Accession No. 342) were tested for binding of the HuMAb anti-CD70 human monoclonal antibody 2H5 at varying concentrations. Binding of the anti-CD70 human monoclonal antibodies was assessed by incubating 5×10^5 cells with antibody at a starting concentration of 50 μg/ml and serially diluting the antibody at a 1:3 dilution. An isotype control antibody was used as a negative control. The cells were washed and binding was detected with a PE-labeled anti-human IgG Ab. […]

A further test has as its system ARH-77 cells. As to the kind of experiment: ADCC fluorescence cytotoxicity assay, ARH-77. The format is cell-based, human. As to conditions: target to effector ratio 1:50. On the procedure: In this example, anti-CD70 monoclonal antibodies were tested for the ability to kill CD70+ cell lines in the presence of effector cells via antibody dependent cellular cytotoxicity (ADCC) in a fluorescence cytotoxicity assay.
Human effector cells were prepared from whole blood as follows. Human peripheral blood mononuclear cells were purified from heparinized whole blood by standard Ficoll-paque separation. The cells were resuspended in RPMI1640 media containing 10% FBS and 200 U/ml of human IL-2 and incubated overnight at 37° C. The following day, the cells were collected and washed four times in culture media and resuspended at 2×10^7 cells/ml. […]
The CD70+ cell lines ARH-77 (human B lymphoblast leukemia; ATCC Accession No. CRL-1621), HuT 78 (human cutaneous lymphocyte lymphoma; ATCC Accession No. TIB-161), Raji (human B lymphocyte Burkitt's lymphoma; ATCC Accession No. CCL-86) and a negative control cell line L540 (human Hodgkin's lymphoma; DSMZ Deposit No. ACC 72) were tested for antibody specific ADCC to the human anti-CD70 monoclonal antibodies using the Delfia fluorescence emission analysis as follows. […]
In this example, a defucosylated and non-defucosylated anti-CD70 monoclonal antibody was tested for the ability to kill CD70+cells in the presence of effector cells via antibody dependent cellular cytotoxicity (ADCC) in a fluorescence cytotoxicity assay […]

B1: anti-CD70 human monoclonal antibody 69A7 (antibody, V domains shown)
VH: QVQLQESGPGLVKPSETLSLTCTVSGGSVSSDYYYWSWIRQPPGKGLEWLGYIYYSGSTNYNPSLKSRVTISVDTSKNQFSLKLRSVTTADTAVYYCARGDGDYGGNCFDYWGQGTLVTVSS
VL: EIVLTQSPATLSLSPGERATLSCRASQSVSSYLAWYQQKPGQAPRLLIFDASNRATGIPARFSGSGSGTDFTLTISSLEPEDFAVYYCQQRSNWPLTFGGGTKVEIK
notes: Human IgG from hybridoma; also called HuMAb 69A7; FITC-conjugated 69A7
On to B1, for which, in test [1], the “cross-reactivity with monkey CD70+ B lymphoma cells” value was “cross-reacts”. Besides, the “binding to Raji cells (MFI)” value in test [2] is “bound”.

B2: 2H5 NF: 2H5 HuMAb lacking fucosyl residues, expressed in CHO cell line Ms704-PF (antibody, V domains shown)
VH: QVQLVESGGGVVQPGRSLRLSCAASGFTFSSYIMHWVRQAPGKGLEWVAVISYDGRNKYYADSVKGRFTISRDNSKNTLYLQMNSLRAEDTAVYYCARDTDGYDFDYWGQGTLVTVSS
VL: EIVLTQSPATLSLSPGERATLSCRASQSVSSYLAWYQQKPGQAPRLLIYDASNRATGIPARFSGSGSGTDFTLTISSLEPEDFAVYYCQQRTNWPLTFGGGTKVEIK
With B2, in the test on ARH-77 cells, the “ADCC, % lysis of ARH-77” value is “increased percentage of specific lysis”.
